Target: the molecule itself
Test: non-reducing SDS-PAGE

B1: His-tagged Snapin wild-type (natural protein, UniProt Q9Z266 1-136, looked up)
chain: MAAAGSAAVSGAGTPVAGPTGRDLFAEGLLEFLRPAVQQLDSHVHAVRESQVELREQIDNLATELCRINEDQKVALDLDPYVKKLLNARRRVVLVNNILQNAQERLRRLNHSVAKETARRRAMLDSGVYPPGSPSK
  stoichiometry N: 2

Reference: publication PMC2656773 (Neuron, 2009)
